The results in this text go back to patent US20110034670A1.

Assay [1] addresses Lck. Description: steady-state kinetics, ATP-binding site, after UV exposure.
Assay [2] concerns the target Src tyrosine kinase. Description: steady-state kinetics, radioactive kinase assay; ATP-binding site.
The target of assay [3] is Lck. Described as above.
The target of assay [4] is Src tyrosine kinase. Description: steady-state kinetics, radioactive kinase assay; ATP-binding site of Src.
In assay [5] the target is Lck. The assay can be described thus: steady-state kinetics, radioactive kinase assay; ATP-binding site of Lck.
Assay [6] concerns the target Src tyrosine kinase. The assay can be described thus: steady-state kinetics, Ki against Km of ATP.
Assay [7] has as its target Lck. Description: steady-state kinetics, radioactive kinase assay.
Assay [8] addresses Src tyrosine kinase. Description: radioactive Src kinase assay, catalytic activity inhibition.

As a reminder, the Ki is the equilibrium dissociation constant of an inhibitor or competing ligand from its target.

Sequence of Lck (D3DPP8 whole entry): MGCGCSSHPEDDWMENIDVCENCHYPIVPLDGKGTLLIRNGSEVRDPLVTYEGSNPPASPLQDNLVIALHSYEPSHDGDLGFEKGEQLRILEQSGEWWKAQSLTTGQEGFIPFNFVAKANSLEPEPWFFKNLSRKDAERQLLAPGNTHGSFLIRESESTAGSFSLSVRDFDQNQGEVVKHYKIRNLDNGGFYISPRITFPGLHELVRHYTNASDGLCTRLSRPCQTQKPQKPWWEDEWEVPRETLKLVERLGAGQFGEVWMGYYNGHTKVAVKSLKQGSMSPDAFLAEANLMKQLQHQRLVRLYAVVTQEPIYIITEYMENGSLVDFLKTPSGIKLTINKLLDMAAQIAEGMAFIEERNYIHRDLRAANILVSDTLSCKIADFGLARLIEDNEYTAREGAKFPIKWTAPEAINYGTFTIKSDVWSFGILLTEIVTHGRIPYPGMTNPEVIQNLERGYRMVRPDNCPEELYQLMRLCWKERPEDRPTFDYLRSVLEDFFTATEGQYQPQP

For “ATP-1,13-Trioxa-SA-pTyr-γ-p-azidoGlu-Glu-Ile-OH (7) (peptide)”, the Ki in the assay with Lck [1] was 29.8 µM; with Src tyrosine kinase [2], 2700 nM; with Lck [3], 30 µM; in the assay with Src tyrosine kinase [4], 1700 to 2600 nM.
Consider “ATP-1,13-Trioxa-Suc-pTyr-Glu-Glu-Ile-OH (5) (peptide)”, for which, in the assay with Lck [5], the Ki is 25.3 µM. The same substance had a fold more potent than ATP alone with Src tyrosine kinase [6] of 44 fold. Also, in the assay with Lck [7], the fold better binding affinity than ATP was determined as 3.9 fold.
As for “H2N-1,13-Trioxa-Suc-pTyr-Glu-Glu-Ile-OH (16) (peptide)”, the Ki with Src tyrosine kinase [8] turned out to be 608 µM.
